The source of these data is publication PMC3959856.

The assay addresses SpyTag-MBP (Streptococcus pyogenes). The assay is described as follows: covalent adduct formation by SDS-PAGE densitometry.

In the case of “full-length SpyCatcher (as used in the reaction assay of Fig. 4b) (domain or fragment)”, the percent covalent complex formation after 1 min was 40% and the percent covalent complex formation after 10 min is 65%.
